Measured values as given in patent publication US9234893B2, “Marker comprising anti-CK8/18 complex autoantibody and its use for diagnosing cancer” (Korea Research Institute of Bioscience and Biotechnology, priority 2011, dated 2016).
Entries after “also recorded” stand apart in the source; their conditions may differ.

How the values were obtained:
Chang liver cells = experiment: Flow cytometry after intracellular staining of cell lines with TAB-K94 antibody; assay type: cell-based; conditions: normal cell line
Procedure: (§1) The reactivity of autoantibodies against cancer cells was examined by flow cytometric analysis of cancer cell line after intracellular staining following the fixation and permeabilization. The method is described in detail as follows. A liver cancer cell line, HepG2 or Hepa1c1c7 at 70-80% confluency was treated with trypsin, detached from the cell culture plate, and washed with PBS. 100 μl of Cytofix/Cytoperm solution (BD) per 2×10^5 cells was added thereto, and the cells were incubated at 4° C. for 20 minutes for fixation and permeabilization. After incubation, 1 ml of Cytowash/Cytoperm solution (BD) was added and mixed well. Then the mixture was centrifuged at 1700 rpm for 5 minutes and the cell pellet was washed. 50 μl of a primary antibody solution (B cell hybridoma cell culture medium or purified primary antibody solution) was added to the washed sample, and the incubation was performed at 4° C. for 40 minutes. After incubation, the cells were washed three times, and treated with anti-mouse Igs-RPE (DaKo) at 4° C. for 40 minutes. Then, the cells were washed an additional three times, and the cell pellet was resuspended in 300 μl of PBS, followed by analysis using a FACSCaliber (BD). Mean values of fluorescence corresponding to antibody reactions were obtained and compared. 50 μl of mouse antibody free DMEM medium was added to the control group showing no antibody reaction.
(§2) The reactivity of TAB-K94 autoantibodies against various cancer cell lines was examined by flow cytometric analysis after intracellular staining of various cancer cell lines in the same manner as in Example 1 (FIG. 3A).

HT22 neuronal cells = experiment: as above; assay type: cell-based; conditions: normal cell line
Procedure: as §1, §2

[1] = tested on: breast cancer cell line MCF-7; experiment: as above; assay type: cell-based
Procedure: as §1, §2

[2] = tested on: liver cancer cell line HepG2; experiment: as above; assay type: cell-based
Procedure: as §1, §2

[3] = tested on: human breast cancer tissues; experiment: Immunohistostaining of human cancer tissues using TAB-K94 antibody; conditions: in particular invasive front
Description: (§3) Based on the reactivity against cancer cells, expression of TAB-K94 antibody-reactive antigen was examined by immunohistostaining of human liver cancer tissues and breast cancer tissues using TAB-K94 antibodies.

[4] = tested on: human liver cancer tissues; experiment: as above; conditions: liver cancer tissues (data not shown)
Description: as §3

[5] = tested on: breast cancer cell line MCF-7; experiment: Western blotting of cell lysate and serum-free cell culture medium with TAB-K94 antibody; assay type: binding; conditions: MCF-7 cell lysate and cell culture medium, 50 μg protein
Procedure: Expression of TAB-K94 antibody-specific antigen proteins was examined in various cancer cell lines by Western blotting (FIG. 5A). The detailed method is as follows. The cells to be analyzed were collected and dissolved in PBS containing RIPA buffer (0.1% (w/v) SDS, 0.1% (w/v) sodium deoxycholate, 1.0% (v/v) NP40, protease inhibitor cocktail (Roche)) to be used as protein analysis samples. Protein quantification was performed by Bradford assay. Each 50 μg of the prepared protein samples was run on 10% reduced SDS-PAGE, and transferred onto a PVDF membrane. […] As a result, the TAB-K94 antibody-specific antigens were found in the liver cancer cell lines including Hep3B, PLC/PRF/5, and SK-Hep1 as a band having a molecular weight of 45 kDa.
For induction of antibodies in the individual, a specific protein should be released into the blood. That is, extracellular release of proteins expressed within the cells supports the induction of autoantibodies. Therefore, the presence of antigens was examined in the cell culture medium of cell lines expressing TAB-K94 antibody-specific antigens by Western blotting. Each 10 ml of serum-free cell culture medium was collected, and concentrated, and each 50 μg of the quantified protein was run on 10% reduced SDS-PAGE. Western blotting was performed in the same manner as above.

[6] = tested on: MCF-7 or HT29 cells having the suppressed CK8 or CK18 expression; experiment: Flow cytometry of cells with siRNA-suppressed CK8 or CK18 expression; assay type: cell-based; conditions: 72 hours after siRNA treatment
Procedure: As siRNAs for the suppression of CK8 and CK18 expression, siRNAs (CK8 Sense: 5′-CCG CAG UUA CGG UCA ACC A(dTdT)-3′ (SEQ ID NO. 23), Antisense: 5′-UGG UUG ACC GUA ACU GCG G(dTdT)-3′ (SEQ ID NO. 24), CK18 Sense: 5′-CUC ACA GAG CUG AGA CGU A(dTdT)-3′ (SEQ ID NO. 25), Antisense: 5′-UAC GUC UCA GCU CUG UGA C(dTdT)-3′ (SEQ ID NO. 26)) provided by Bioneer were used, and injected into MCF-7 or HT29 cells using Lipofectamine 2000 (Invitrogen). 72 hours after siRNA treatment, the cells were collected to extract total RNA, and 5 μg of RNA was used as a template to synthesize cDNA. The synthesized cDNA was used as a template to perform polymerase chain reaction using primers having specificity to CK8 and CK18. The resulting product was analyzed on a 1% agarose gel.
The cells showing the suppressed CK8 and CK18 expression by siRNA in RT-PCR were subjected to flow cytometry in the same manner as in Examples 1 and 3, in order to examine their TAB-K94 antibody reaction. […] However, the previous studies reported that […] form a complex to exert intracellular function. Therefore, it can be assumed that variation in the expression of one of the two proteins affects that of the other protein, and this assumption was examined by Western blotting. After treatment of siRNA for CK8 or CK18, Western blotting was performed using specific antibody to each.

CK18 [7] = biological target: T1, CK18 (Homo sapiens, UniProt P05783); experiment: Western blotting of recombinant proteins with TAB-K94 antibody; assay type: binding; conditions: CK18 run alone
T1 construct: made in house; host or cells: E. coli BL21 (DE3)
T1 sequence (P05783 1-430): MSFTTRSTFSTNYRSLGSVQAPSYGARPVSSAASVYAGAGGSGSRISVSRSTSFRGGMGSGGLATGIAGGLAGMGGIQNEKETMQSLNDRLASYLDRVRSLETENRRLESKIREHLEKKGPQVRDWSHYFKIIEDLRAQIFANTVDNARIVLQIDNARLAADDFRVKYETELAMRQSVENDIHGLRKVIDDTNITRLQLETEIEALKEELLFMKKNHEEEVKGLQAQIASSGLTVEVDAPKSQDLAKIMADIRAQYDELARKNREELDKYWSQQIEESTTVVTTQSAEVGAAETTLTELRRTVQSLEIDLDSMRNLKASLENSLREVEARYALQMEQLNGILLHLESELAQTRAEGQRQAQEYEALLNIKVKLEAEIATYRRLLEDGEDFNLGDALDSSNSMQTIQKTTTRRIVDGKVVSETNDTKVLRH
Description: (§4) ID NO. 33), CK18 [NT] ID NO. 34), [NT] ID NO.

CK8 [8] = biological target: T2, CK8 (Homo sapiens, UniProt P05787); experiment: as above; assay type: binding; conditions: CK8 run alone
T2 construct: made in house; host or cells: E. coli BL21 (DE3)
T2 sequence (P05787 1-483): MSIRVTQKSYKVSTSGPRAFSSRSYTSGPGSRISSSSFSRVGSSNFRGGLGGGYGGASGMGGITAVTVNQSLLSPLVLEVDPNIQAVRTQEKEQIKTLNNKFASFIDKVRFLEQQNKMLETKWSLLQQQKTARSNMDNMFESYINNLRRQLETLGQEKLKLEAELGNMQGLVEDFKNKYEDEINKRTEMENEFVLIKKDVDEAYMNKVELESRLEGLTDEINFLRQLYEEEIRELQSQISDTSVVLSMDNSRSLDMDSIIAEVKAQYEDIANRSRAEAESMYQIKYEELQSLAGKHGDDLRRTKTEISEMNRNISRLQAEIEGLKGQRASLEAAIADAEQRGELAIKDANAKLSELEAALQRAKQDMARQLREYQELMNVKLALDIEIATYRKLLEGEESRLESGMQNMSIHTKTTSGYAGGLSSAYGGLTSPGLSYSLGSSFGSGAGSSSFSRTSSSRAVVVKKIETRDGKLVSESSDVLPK
Description: as §4

[9] = biological target: T3, CK8/18 mixture (CK8/18 complex) (Homo sapiens, UniProt P05783+P05787); experiment: as above; assay type: binding; conditions: mixture of CK8 and CK18
T3 construct: made in house; host or cells: E. coli BL21 (DE3)
T3 sequence (P05787 1-483): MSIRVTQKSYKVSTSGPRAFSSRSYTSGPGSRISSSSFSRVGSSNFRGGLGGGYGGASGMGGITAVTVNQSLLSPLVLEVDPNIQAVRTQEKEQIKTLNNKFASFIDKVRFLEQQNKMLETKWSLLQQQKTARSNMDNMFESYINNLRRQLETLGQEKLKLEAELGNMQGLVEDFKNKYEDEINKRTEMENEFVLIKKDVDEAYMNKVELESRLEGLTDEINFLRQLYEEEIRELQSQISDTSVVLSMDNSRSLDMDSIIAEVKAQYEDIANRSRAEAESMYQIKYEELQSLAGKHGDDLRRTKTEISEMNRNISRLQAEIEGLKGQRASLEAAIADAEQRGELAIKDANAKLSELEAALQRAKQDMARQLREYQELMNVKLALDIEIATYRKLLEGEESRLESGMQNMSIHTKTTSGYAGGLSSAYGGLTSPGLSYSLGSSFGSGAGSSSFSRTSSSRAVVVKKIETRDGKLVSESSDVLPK
T3 sequence (P05783 1-430): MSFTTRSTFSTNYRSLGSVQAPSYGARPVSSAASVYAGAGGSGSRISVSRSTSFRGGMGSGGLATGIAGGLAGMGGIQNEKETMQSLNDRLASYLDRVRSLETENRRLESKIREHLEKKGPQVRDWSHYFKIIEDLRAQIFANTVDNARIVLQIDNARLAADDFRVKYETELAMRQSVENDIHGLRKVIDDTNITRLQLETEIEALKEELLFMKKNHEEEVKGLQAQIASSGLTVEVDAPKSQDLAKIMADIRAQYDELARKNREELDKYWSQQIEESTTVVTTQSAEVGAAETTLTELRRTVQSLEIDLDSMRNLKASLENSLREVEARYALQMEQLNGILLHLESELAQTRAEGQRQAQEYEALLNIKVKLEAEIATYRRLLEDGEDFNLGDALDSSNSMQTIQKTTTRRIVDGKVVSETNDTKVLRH
Description: as §4

CK8 [10] = biological target: T2, CK8; experiment: ELISA with recombinant protein as coating antigen; assay type: binding
CK18 [11] = biological target: T1, CK18; experiment: ELISA with recombinant protein as coating antigen; assay type: binding
CK8/18 complex = biological target: T4, CK8/18 complex (Homo sapiens, UniProt P05783+P05787); experiment: ELISA with recombinant protein as coating antigen; assay type: binding; conditions: mixture of the two proteins as coating antigen
T4 construct: made in house; host or cells: E. coli BL21 (DE3)
T4 sequence (P05787 1-483): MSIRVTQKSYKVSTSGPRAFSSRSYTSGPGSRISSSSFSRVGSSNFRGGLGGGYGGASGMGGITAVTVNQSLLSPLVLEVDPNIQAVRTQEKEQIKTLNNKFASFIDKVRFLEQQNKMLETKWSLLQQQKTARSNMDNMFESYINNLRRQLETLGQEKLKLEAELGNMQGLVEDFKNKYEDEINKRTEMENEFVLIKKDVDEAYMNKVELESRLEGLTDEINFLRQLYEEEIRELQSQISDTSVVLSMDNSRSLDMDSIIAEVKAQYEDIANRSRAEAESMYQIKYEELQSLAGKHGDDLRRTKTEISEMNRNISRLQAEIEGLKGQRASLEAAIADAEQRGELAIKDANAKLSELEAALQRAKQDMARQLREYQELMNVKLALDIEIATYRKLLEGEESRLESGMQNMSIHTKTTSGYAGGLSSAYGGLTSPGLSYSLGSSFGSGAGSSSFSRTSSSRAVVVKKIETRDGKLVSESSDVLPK
T4 sequence (P05783 1-430): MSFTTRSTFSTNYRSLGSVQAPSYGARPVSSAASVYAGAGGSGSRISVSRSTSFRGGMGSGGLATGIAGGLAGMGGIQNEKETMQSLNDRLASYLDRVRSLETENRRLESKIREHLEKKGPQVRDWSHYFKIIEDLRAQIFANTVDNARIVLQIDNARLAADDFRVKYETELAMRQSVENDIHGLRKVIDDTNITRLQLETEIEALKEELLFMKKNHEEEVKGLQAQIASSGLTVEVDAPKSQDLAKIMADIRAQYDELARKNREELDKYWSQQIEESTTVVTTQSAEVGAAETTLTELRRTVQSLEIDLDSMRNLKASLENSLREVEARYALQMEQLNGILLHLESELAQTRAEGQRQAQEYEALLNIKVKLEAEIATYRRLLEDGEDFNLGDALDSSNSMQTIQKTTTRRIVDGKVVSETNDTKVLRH

[12] = tested on: HepG2, MCF-7 and HT29 cells; experiment: Intracellular localization by fluorescence staining and confocal laser microscopy; assay type: cell-based; conditions: primary antibody 5 μg/ml
Procedure: In order to examine intracellular localization of the TAB-K94 antigen expression, the corresponding cells were cultured on a coverslip, and then intracellular staining was performed, followed by observation using confocal laser microscopy (Zeiss). […] The stained coverslip was treated with a mounting solution containing DAPI, and placed on a slide. […] It was confirmed that the TAB-K94 antibody-specific antigen is a CK8/18 complex, and thus the cells were stained with CK8 and CK18-specific antibodies to compare with the localization of TAB-K94 antibody reaction.

reactivity in Western blotting (CK18 [7]): no reactivity
reactivity in Western blotting (CK8 [8]): no reactivity
reactivity in Western blotting [9]: showed reactivity
reactivity in ELISA (CK8 [10]): not observed
reactivity in ELISA (CK18 [11]): not observed
reactivity in ELISA (CK8/18 complex): the reactivity was observed
B1: TAB-K94 antibody: Monoclonal autoantibody against cytokeratin 8/18 complex from hybridoma KCTC 11799BP; heavy chain SEQ ID NO. 1, light chain SEQ ID NO. 2 (antibody, V domains shown)
VH: XVXLXQSGPGILQPSQTLSLTCSFSGFSLSTFGMGVGWIRQPSGKGLEWLAHIWWDDDKYYNPALKSRLTISKDTSKNQVFLKIANVDTADTATYYCARIGGYYGSSSWYFDVWGTGTTVTVSSESQSFPNVRSS
VL: DIVITQTPSSLSASLGGKVTITCKASQDINKYIAWYQHKPGKGPRLLIHYTSTLQPGIPSRFSGSGSGRDYSFSISNLEPEDIATYYCLQYDNLLTFGGGTKLEIKRADAAPTVS
modifications: not fully specified; a heavy chain variable region; a light chain variable region
reactivity measured by flow cytometry after intracellular staining (Chang liver cells): lower reactivity
reactivity measured by flow cytometry after intracellular staining (HT22 neuronal cells): lower reactivity
reactivity measured by flow cytometry after intracellular staining [1]: High reactivity; also recorded: noticeably increased
reactivity measured by flow cytometry after intracellular staining [2]: High reactivity; also recorded: noticeably increased
staining of tissue by immunohistochemistry [3]: strong complete staining; also recorded: strong staining around cell membrane
staining of tissue by immunohistochemistry [4]: hardly any distinct reaction; also recorded: no distinct reaction
reactivity in Western blotting [5]: very high reactivity
TAB-K94 antibody reaction after siRNA suppression of CK8 or CK18 [6]: reduced
intracellular localization of staining [12]: strongly localized in the cell membrane
